Results as given in article PMC10786891, “Massively parallel profiling of RNA-targeting CRISPR-Cas13d”.
Where a chain is given by its changes, count along the chain named. In names and notes the source's numbering stands.

T1: EsCas13d, nuclease-dead (Eubacterium siraeum, UniProt B0MS50, R295A;H300A;R849A;H854A)
T1 sequence: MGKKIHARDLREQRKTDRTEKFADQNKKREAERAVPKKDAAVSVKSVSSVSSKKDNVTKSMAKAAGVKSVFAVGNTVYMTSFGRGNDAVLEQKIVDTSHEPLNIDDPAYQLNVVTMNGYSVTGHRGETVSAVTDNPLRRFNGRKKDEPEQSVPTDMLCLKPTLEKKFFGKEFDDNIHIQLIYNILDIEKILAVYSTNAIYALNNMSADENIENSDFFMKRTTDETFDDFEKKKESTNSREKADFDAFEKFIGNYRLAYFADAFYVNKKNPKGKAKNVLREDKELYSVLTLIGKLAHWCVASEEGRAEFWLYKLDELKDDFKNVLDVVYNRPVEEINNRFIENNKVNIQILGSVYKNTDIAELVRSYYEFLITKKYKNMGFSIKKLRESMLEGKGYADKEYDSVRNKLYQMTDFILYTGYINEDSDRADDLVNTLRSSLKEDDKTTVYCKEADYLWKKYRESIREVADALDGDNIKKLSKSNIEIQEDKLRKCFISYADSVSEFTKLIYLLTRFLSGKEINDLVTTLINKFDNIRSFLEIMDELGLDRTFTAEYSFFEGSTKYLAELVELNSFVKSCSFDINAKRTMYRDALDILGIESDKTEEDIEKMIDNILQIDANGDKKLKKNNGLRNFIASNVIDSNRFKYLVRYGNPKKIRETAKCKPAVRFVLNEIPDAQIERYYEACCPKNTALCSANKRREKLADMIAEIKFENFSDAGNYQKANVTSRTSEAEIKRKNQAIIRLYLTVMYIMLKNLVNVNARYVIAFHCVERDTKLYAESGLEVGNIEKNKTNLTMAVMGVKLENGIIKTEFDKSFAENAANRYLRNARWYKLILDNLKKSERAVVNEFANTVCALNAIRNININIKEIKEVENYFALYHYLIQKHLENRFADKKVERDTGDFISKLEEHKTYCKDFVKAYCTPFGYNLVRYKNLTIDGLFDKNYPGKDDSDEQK

B1: target 1 G5C,G13U (mixed)
RNA 1: CACCCGUGCAAAAAUGCAGGGGUCUAAAACUGAGCGGAUAACCUCUCUAUGG
RNA 2: GGGAAUGGAUCCACAUCUACGAAUUCGUACCAUAGAGAUGUUAUCCCCUCACCGAGAUCGGAAGAGCACACGU
B2: target 1 insU 3' of 20,insA 3' of 6 (mixed)
RNA 1: B1 RNA 1
RNA 2: GGGAAUGGAUCCACAUCUACGAAUUCGUACCAUUAGAGAGGUUAUCCAGCUCACCGAGAUCGGAAGAGCACACGU
B3: target 1 insA 3' of 19,insU 3' of 12 (mixed)
RNA 1: B1 RNA 1
RNA 2: B2 RNA 2 with U34A, A44U, U45A, C46U, A48C
B4: target 1 insU 3' of 7,insA 3' of 5 (mixed)
RNA 1: B1 RNA 1
RNA 2: GGGAAUGGAUCCACAUCUACGAAUUCGUACCAUAGAGAGGUUAUCUCGACUCACCGAGAUCGGAAGAGCACACGU
B5: target 1 insC 3' of 12,insA 3' of 8 (mixed)
RNA 1: B1 RNA 1
RNA 2: B4 RNA 2 with U41C, A43U, U44A, C45U, U46A, G48C, A49G
B6: target 1 C4G,U10A (mixed)
RNA 1: B1 RNA 1
RNA 2: B1 RNA 2 with U39G, U42A, C47G, C48G
B7: target 1 insU 3' of 22,insG 3' of 1 (mixed)
RNA 1: B1 RNA 1
RNA 2: B2 RNA 2 with C31U, A32C, U33A, A48G, G49C, C50U, U51C, C52A, A53G
B8: target 1 insU 3' of 5,insC 3' of 5 (mixed)
RNA 1: B1 RNA 1
RNA 2: B4 RNA 2 with U46C, C47G, G48U, A49C
B9: target 1 U3G,G5A (mixed)
RNA 1: B1 RNA 1
RNA 2: B1 RNA 2 with U39G, C47A, U49G
B10: target 1 U3G,A9C (mixed)
RNA 1: B1 RNA 1
RNA 2: B1 RNA 2 with U39G, A43C, C47G, U49G
B11: target 1 G5U,A14C (mixed)
RNA 1: B1 RNA 1
RNA 2: B1 RNA 2 with A38C, U39G, C47U
B12: target 1 insC 3' of 9,insA 3' of 4 (mixed)
RNA 1: B1 RNA 1
RNA 2: B4 RNA 2 with U44C, C45U, U46C, A49C, C50A
B13: target 1 insA 3' of 5,insU 3' of 2 (mixed)
RNA 1: B1 RNA 1
RNA 2: B4 RNA 2 with U46C, C47G, G48A, A49C, C50U, U51C, C52U
B14: target 1 insU 3' of 22,insA 3' of 2 (mixed)
RNA 1: B1 RNA 1
RNA 2: B2 RNA 2 with C31U, A32C, U33A, A48G, G49C, C50U, U51C, C52A
B15: target 1 insU 3' of 9,insA 3' of 6 (mixed)
RNA 1: B1 RNA 1
RNA 2: B4 RNA 2 with C45U, U46C, G48A, A49G
B16: target 1 A9U,A18C (mixed)
RNA 1: B1 RNA 1
RNA 2: B1 RNA 2 with A34C, U39G, A43U, C47G
B17: target 1 del11,del13 (mixed)
RNA 1: B1 RNA 1
RNA 2: GGGAAUGGAUCCACAUCUACGAAUUCGUACCAUAGAGAGUAUCCGCUCACCGAGAUCGGAAGAGCACACGU
B18: target 1 insA 3' of 6,insU 3' of 4 (mixed)
RNA 1: B1 RNA 1
RNA 2: B4 RNA 2 with U46C, C47A, A49C, C50U
B19: target 1 G13A,A14U (mixed)
RNA 1: B1 RNA 1
RNA 2: B1 RNA 2 with A38U, U39A, C47G
B20: target 1 C6A,C7A (mixed)
RNA 1: B1 RNA 1
RNA 2: B1 RNA 2 with U39G, C45A, C46A, C47G
B21: target 1 del9,del13 (mixed)
RNA 1: B1 RNA 1
RNA 2: B17 RNA 2 with A41U
B22: target 1 insG 3' of 22,insA 3' of 3 (mixed)
RNA 1: B1 RNA 1
RNA 2: B2 RNA 2 with C31G, A32C, U33A, A48G, G49C, C50U, U51A
B23: target 1 insC 3' of 17,insC 3' of 3 (mixed)
RNA 1: B1 RNA 1
RNA 2: B2 RNA 2 with U34A, A35G, G36C, A48G, G49C, C50U, U51C
B24: target 1 insA 3' of 21,insG 3' of 16 (mixed)
RNA 1: B1 RNA 1
RNA 2: B2 RNA 2 with U33A, A39G, G40A, U42G, A44U, U45A, C46U, A48C
B25: target 1 A1U,U11G (mixed)
RNA 1: B1 RNA 1
RNA 2: B1 RNA 2 with U39G, U41G, C47G, A51U
B26: target 1 insA 3' of 19,insA 3' of 11 (mixed)
RNA 1: B1 RNA 1
RNA 2: B2 RNA 2 with U34A, U43A, A44U, U45A, C46U, A48C
B27: target 1 insA 3' of 21,insC 3' of 9 (mixed)
RNA 1: B1 RNA 1
RNA 2: B2 RNA 2 with U33A, U45C, C46U, A48C
B28: target 1 U8A,G12U (mixed)
RNA 1: B1 RNA 1
RNA 2: B1 RNA 2 with U39G, G40U, U44A, C47G
B29: target 1 C2A,G12C (mixed)
RNA 1: B1 RNA 1
RNA 2: B1 RNA 2 with U39G, G40C, C47G, C50A
B30: target 1 insA 3' of 17,insC 3' of 3 (mixed)
RNA 1: B1 RNA 1
RNA 2: B2 RNA 2 with U34A, A35G, G36A, A48G, G49C, C50U, U51C
B31: target 1 insC 3' of 17,insU 3' of 5 (mixed)
RNA 1: B1 RNA 1
RNA 2: B2 RNA 2 with U34A, A35G, G36C, A48G, G49U
B32: target 1 insU 3' of 22,insC 3' of 1 (mixed)
RNA 1: B1 RNA 1
RNA 2: B2 RNA 2 with C31U, A32C, U33A, A48G, G49C, C50U, U51C, C52A, A53C
B33: target 1 insC 3' of 8 (mixed)
RNA 1: B1 RNA 1
RNA 2: GGGAAUGGAUCCACAUCUACGAAUUCGUACCAUAGAGAGGUUAUCCCGCUCACCGAGAUCGGAAGAGCACACGU

The binders below were run against T1, EsCas13d, nuclease-dead (assay: crRNA (strand 1, pre-loaded); Mg2+; 40 mM Tris-HCl pH 7.5, 150 mM NaCl, 6 mM MgCl2, 1 mM DTT, 0.1% Tween-20, 0.2 mg/ml BSA; 25 C; 10 min per concentration, then washed). Details: tags: His6-TwinStrep-SUMO cleaved; N-terminal SNAP kept (SNAP-Surface 488); label: 3' end held by stalled T7 RNA polymerase.

Question: For B1, which Kd is on record?
Answer: The Kd was 40 ± 9 nM.

Question: Which Kd does the source give for B2 here?
Answer: The Kd was 15.9 ± 1.1 nM.

Question: How did the Kd turn out when B3 was run?
Answer: Its Kd is 17.9 ± 1.2 nM.

Question: How did the Kd turn out when B4 was run?
Answer: Its Kd is 17.4 ± 1 nM.

Question: B5 was tested. Which Kd did it give?
Answer: The Kd was 12 ± 0.9 nM.

Question: How did the Kd turn out when B6 was run?
Answer: Its Kd is 4.87 ± 0.25 nM.

Question: B7 was tested. Which Kd did it give?
Answer: The Kd was 35 ± 4 nM.

Question: For B8, which Kd is on record?
Answer: Its Kd is 35 ± 4 nM.

Question: B9 was tested. Which Kd did it give?
Answer: Its Kd is 43 ± 4 nM.

Question: B10 was tested. Which Kd did it give?
Answer: The Kd was 9.4 ± 0.7 nM.

Question: How did the Kd turn out when B11 was run?
Answer: The Kd was 20.7 ± 1.5 nM.

Question: How did the Kd turn out when B12 was run?
Answer: The Kd was 9.5 ± 1 nM.

Question: How did the Kd turn out when B13 was run?
Answer: Its Kd is 14.7 ± 0.9 nM.

Question: With B14 as the binder, how does the Kd read?
Answer: Its Kd is 33.5 ± 2.8 nM.

Question: Which Kd does the source give for B15 here?
Answer: Its Kd is 23.5 ± 2.7 nM.

Question: With B16 as the binder, how does the Kd read?
Answer: The Kd was 60 ± 5 nM.

Question: B17 was tested. Which Kd did it give?
Answer: Its Kd is 11.1 ± 0.9 nM.

Question: Which Kd does the source give for B18 here?
Answer: Its Kd is 19.8 ± 1.1 nM.

Question: With B19 as the binder, how does the Kd read?
Answer: Its Kd is 6.6 ± 0.7 nM.

Question: For B20, which Kd is on record?
Answer: Its Kd is 7.47 ± 0.35 nM.

Question: With B21 as the binder, how does the Kd read?
Answer: Its Kd is 21.3 ± 1.1 nM.

Question: How did the Kd turn out when B22 was run?
Answer: Its Kd is 25.6 ± 2.3 nM.

Question: How did the Kd turn out when B23 was run?
Answer: Its Kd is 60 ± 13 nM.

Question: How did the Kd turn out when B24 was run?
Answer: The Kd was 51 ± 5 nM.

Question: For B25, which Kd is on record?
Answer: Its Kd is 20.8 ± 0.9 nM.

Question: How did the Kd turn out when B26 was run?
Answer: Its Kd is 41.3 ± 2.2 nM.

Question: B27 was tested. Which Kd did it give?
Answer: Its Kd is 31.5 ± 2 nM.

Question: With B28 as the binder, how does the Kd read?
Answer: Its Kd is 13.1 ± 0.8 nM.

Question: How did the Kd turn out when B29 was run?
Answer: Its Kd is 7.21 ± 0.25 nM.

Question: Which Kd does the source give for B30 here?
Answer: The Kd was 14.8 ± 1.1 nM.

Question: B31 was tested. Which Kd did it give?
Answer: The Kd was 35.2 ± 3.2 nM.

Question: With B32 as the binder, how does the Kd read?
Answer: Its Kd is 29.1 ± 2.4 nM.

Question: With B33 as the binder, how does the Kd read?
Answer: Its Kd is 13.2 ± 0.7 nM.
